Reference: publication PMC5085863 (The Biochemical journal, 2016)
Like-named read-outs stand apart in the source and are kept apart here.

Tests used:
Test in all cases: FRET or BRET
FRET or BRET [1] = target: the molecule itself
FRET or BRET [2] = target: the molecule itself; remark: listed apart in the source
FRET or BRET [3] = target: the molecule itself; remark: listed apart in the source
FRET or BRET [4] = target: the molecule itself; remark: listed apart in the source
FRET or BRET [5] = target: the molecule itself; remark: listed apart in the source
FRET or BRET [6] = target: the molecule itself; remark: listed apart in the source
FRET or BRET [7] = target: the molecule itself; remark: listed apart in the source

B1: opsin tagged with the fluorescent proteins mTurquoise or SYFP2 (opsin-mTurquoise and opsin-SYFP2, co-expressed) (receptor, UniProt P15409 1-348, looked up)
chain: MNGTEGPNFYVPFSNVTGVVRSPFEQPQYYLAEPWQFSMLAAYMFLLIVLGFPINFLTLYVTVQHKKLRTPLNYILLNLAVADLFMVFGGFTTTLYTSLHGYFVFGPTGCNLEGFFATLGGEIALWSLVVLAIERYVVVCKPMSNFRFGENHAIMGVVFTWIMALACAAPPLVGWSRYIPEGMQCSCGIDYYTLKPEVNNESFVIYMFVVHFTIPMIVIFFCYGQLVFTVKEAAAQQQESATTQKAEKEVTRMVIIMVIFFLICWLPYASVAFYIFTHQGSNFGPIFMTLPAFFAKSSSIYNPVIYIMLNKQFRNCMLTTLCCGKNPLGDDDASATASKTETSQVAPA
tetramer to dimer ratio (ρ) (FRET or BRET [1]): 1.08
tetramer to dimer ratio (ρ) (FRET or BRET [2]): 1.79
tetramer to dimer ratio (ρ) (FRET or BRET [3]): 0.401
tetramer to dimer ratio (ρ) (FRET or BRET [4]): 484
stoichiometry N (FRET or BRET [5]): 2
KD tetramer to higher order oligomers (FRET or BRET [6]): > 1150 molecules/μm^2
stoichiometry N (FRET or BRET [6]): ≥ 12
stoichiometry N (FRET or BRET [7]): 4
